The values that follow come from doi:10.1101/2020.06.18.159806 (bioRxiv, 2020).

The data set deals with the molecule itself. Kind of data set: crystal structure.

Consider LSEGLRESLSSYISLAEDP (domain or fragment, UniProt Q8R4L0 237-255, looked up) [C-terminal tail of mouse SLAP2 (residues 237-255)], for which the binding result is reported as “binds”.
